In US20090087437A1 (Dana-Farber, published 2009):

Tests used:
Assay in all cases: co-immunoprecipitation from cell lysates, western blot
cIAP1 = cIAP1 (UniProt Q13490 1-618)
Bcl-xL = target: T1, Bcl-xL (UniProt Q07817 1-233)
T1 construct: also called multidomain antiapoptotic Bcl-xL protein

Bcl-2 = target: T2, Bcl-2 (UniProt P10415 1-239)
T2 construct: also called multidomain antiapoptotic Bcl-2 protein

cIAP2 = target: T3, cIAP2 (UniProt Q13489 1-604)
T3 construct: The list of antibodies in the same sentence prints 'cIAP', while the result names 'cIAP2'

XIAP = XIAP (UniProt P98170 1-497)

Measured: binding result

T2 sequence (P10415 whole entry): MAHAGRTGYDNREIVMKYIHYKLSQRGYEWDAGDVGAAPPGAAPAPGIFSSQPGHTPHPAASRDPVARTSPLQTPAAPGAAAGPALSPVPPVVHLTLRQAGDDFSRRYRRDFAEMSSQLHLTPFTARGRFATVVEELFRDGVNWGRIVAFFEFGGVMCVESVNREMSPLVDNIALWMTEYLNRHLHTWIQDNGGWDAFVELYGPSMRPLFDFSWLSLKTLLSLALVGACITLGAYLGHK
Sequence of XIAP (P98170 whole entry): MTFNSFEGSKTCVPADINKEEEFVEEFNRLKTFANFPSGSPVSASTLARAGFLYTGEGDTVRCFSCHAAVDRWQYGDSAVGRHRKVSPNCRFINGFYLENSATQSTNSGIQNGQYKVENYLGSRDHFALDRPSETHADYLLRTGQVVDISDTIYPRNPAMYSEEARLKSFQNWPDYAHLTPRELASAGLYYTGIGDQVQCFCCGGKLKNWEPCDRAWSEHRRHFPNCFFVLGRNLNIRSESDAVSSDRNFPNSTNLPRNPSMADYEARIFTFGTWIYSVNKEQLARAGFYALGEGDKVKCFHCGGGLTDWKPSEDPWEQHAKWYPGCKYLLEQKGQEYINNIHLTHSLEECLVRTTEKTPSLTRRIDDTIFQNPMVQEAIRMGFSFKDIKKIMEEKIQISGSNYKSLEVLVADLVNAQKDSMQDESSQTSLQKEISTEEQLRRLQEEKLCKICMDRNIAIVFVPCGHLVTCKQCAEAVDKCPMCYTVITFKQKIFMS
Sequence of cIAP1 (Q13490 whole entry): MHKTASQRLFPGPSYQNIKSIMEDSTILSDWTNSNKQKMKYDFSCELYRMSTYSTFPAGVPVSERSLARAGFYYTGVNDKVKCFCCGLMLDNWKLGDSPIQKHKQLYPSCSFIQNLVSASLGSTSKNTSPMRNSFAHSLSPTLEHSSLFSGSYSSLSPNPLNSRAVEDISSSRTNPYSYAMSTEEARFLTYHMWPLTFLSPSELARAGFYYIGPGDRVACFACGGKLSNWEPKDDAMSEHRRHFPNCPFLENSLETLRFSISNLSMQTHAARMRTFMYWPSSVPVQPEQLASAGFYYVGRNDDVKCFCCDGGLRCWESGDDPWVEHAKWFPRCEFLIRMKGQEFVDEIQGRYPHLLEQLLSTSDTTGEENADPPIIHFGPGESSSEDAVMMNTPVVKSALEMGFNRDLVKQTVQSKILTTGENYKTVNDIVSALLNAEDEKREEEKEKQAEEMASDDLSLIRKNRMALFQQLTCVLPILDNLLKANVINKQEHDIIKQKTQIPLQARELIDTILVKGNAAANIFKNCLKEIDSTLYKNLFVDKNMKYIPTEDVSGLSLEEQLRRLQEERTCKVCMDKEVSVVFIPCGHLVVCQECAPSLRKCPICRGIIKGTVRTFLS
T3 sequence (Q13489 whole entry): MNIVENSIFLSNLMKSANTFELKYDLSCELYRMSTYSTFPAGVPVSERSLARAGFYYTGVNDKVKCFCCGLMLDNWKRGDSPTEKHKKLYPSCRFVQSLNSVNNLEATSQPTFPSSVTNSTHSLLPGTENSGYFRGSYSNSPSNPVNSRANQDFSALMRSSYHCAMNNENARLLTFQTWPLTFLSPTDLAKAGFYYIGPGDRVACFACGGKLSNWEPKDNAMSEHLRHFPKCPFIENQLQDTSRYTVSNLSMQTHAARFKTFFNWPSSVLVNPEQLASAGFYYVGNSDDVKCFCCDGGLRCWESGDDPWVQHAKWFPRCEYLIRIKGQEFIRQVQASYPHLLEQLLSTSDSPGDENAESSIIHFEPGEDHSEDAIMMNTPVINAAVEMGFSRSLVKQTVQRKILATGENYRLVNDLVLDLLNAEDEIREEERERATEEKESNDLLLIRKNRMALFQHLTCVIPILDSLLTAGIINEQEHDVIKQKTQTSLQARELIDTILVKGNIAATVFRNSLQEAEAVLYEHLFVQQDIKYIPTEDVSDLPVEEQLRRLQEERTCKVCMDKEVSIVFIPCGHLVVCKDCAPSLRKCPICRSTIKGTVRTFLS
T1 sequence (Q07817 whole entry): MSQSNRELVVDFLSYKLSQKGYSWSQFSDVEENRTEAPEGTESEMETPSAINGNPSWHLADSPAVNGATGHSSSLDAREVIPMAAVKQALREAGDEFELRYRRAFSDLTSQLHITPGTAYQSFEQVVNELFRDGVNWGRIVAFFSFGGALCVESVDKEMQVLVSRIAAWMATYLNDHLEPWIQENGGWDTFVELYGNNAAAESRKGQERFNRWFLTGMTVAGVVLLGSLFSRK

B1: MUC1 C-terminal transmembrane subunit (MUC1-C) (other, UniProt P15941 1098-1255, looked up)
chain: SVVVQLTLAFREGTINVHDVETQFNQYKTEAASRYNLTISDVSVSDVPFPFSAQSGAGVPGWGIALLVLVCVLVALAIVYLIALAVCQCRRKNYGQLDIFPARDTYHPMSEYPTYHTHGRYVPPSSTDRSPYEKVSAGNGGSSLSYTNPAVAATSANL
notes: Endogenous protein immunoprecipitated from MCF7 lysates with an anti-MUC1-C antibody
no binding: all assays above
